This is an account of results in US20260232824A1 (published 2026).

Common to all, as to assay: SPR; antibody captured in bivalent format
Assay [1] has as its target T1, His-tagged rhesus CD180 from Creative Biomart (CD180-1598R) (rhesus, UniProt F7GX75 24-626).
T1 chain: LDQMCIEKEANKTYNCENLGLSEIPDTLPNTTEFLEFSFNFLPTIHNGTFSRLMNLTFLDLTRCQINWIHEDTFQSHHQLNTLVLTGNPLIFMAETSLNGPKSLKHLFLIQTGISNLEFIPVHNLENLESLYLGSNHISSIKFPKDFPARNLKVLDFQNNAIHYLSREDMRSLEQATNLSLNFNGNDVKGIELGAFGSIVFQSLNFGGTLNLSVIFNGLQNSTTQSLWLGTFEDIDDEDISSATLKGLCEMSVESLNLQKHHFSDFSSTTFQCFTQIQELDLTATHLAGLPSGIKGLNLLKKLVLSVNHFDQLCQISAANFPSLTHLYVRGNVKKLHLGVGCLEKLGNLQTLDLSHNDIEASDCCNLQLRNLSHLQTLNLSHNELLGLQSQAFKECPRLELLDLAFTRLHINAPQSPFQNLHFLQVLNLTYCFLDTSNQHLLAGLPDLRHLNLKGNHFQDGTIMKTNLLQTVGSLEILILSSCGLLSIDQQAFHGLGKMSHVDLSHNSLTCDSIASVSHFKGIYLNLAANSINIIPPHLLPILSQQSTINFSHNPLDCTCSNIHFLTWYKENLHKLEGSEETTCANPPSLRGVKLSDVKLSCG

In assay [2] the target is T2, human CD180 extracellular domain (ECD) HIS-tagged protein (Creative Biomart, CD180-3900H) (human, UniProt Q99467 24-626).
T2 chain: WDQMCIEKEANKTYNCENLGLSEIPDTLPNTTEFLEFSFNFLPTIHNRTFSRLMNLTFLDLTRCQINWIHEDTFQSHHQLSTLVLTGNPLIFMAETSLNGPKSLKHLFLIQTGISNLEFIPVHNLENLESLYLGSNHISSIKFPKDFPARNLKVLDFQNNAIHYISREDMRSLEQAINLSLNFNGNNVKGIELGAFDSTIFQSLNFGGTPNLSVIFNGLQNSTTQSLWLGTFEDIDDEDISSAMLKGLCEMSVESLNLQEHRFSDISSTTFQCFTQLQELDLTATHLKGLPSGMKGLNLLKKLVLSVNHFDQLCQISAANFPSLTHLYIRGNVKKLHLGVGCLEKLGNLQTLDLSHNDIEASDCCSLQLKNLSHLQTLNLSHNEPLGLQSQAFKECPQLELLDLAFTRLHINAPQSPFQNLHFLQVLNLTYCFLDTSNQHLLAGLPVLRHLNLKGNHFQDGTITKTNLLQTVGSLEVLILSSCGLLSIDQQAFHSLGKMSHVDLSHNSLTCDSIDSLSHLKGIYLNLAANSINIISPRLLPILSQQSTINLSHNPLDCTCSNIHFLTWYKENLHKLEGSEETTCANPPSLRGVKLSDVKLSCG

The target in assay [3] is T3, human CD180 extracellular domain (ECD) HIS-tagged protein (Sino Biological, 11370-H08H) (human, UniProt Q99467 24-626).
T3 chain: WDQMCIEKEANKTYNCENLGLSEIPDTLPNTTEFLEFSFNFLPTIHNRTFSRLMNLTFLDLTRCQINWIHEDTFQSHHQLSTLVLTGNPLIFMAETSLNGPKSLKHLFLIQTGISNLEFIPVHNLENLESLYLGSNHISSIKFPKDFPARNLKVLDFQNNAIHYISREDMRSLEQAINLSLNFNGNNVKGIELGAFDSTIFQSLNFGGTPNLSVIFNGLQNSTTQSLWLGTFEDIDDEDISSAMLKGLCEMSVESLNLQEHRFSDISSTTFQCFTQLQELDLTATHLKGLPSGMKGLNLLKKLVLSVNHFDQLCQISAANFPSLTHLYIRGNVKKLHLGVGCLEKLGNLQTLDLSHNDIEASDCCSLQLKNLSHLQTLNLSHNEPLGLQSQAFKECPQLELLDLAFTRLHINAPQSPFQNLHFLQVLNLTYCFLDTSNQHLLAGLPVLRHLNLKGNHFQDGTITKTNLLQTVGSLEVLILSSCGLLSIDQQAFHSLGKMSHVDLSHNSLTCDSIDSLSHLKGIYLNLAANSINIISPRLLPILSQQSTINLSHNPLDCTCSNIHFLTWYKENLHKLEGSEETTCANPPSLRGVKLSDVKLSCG

B1: Ab-007 (antibody, V domains shown)
VH: EVQLVESGGGVVRPGGSLRLSCAASGFTFDDYAMSWVRQAPGKGLEWVSDINWNGGTTSYADSVKGRFTISRDNAKNSLFLQMNSLRAEDTALYYCARKGRDTVVVKGYYYFSYYMDVWGKGSTVTVSS
VL: not shown
As to B1, the figures for the Kd in assay [1], in assay [2] and in assay [3] were 0.05 nM, 4.7 nM and 3.4 nM, respectively.

B2: Ab-006 (antibody, V domains shown)
VH: EVQLVESGGGLVKPGGSLRLSCTASGFTFDDYDMTWVRQAPGKGLEWVSGINWNGGNTDYADSVKGRFTISRDNTKNSLYLQMNSLRAEDTALYYCARKGRDIVVVKGFYYHYYYMDVWGKGITVTVSS
VL: not shown
B2: the Kd amounted to 0.4 nM in assay [1], 12 nM in assay [2] and 6.8 nM in assay [3].
